Like-named read-outs stand apart in the source and are kept apart here.
T1: Bcl-w
T1 chain: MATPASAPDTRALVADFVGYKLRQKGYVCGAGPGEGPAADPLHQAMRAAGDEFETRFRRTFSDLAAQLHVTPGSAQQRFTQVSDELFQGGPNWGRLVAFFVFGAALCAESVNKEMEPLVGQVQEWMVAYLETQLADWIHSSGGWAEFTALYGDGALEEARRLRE


Columns and labels:
Experiment in all cases: competition phage ELISA
[1] = molecular target: T1, Bcl-w
[2] = molecular target: Bcl-2
[3] = molecular target: T1, Bcl-w

Bcl-2, sequence (chain, as listed by the source): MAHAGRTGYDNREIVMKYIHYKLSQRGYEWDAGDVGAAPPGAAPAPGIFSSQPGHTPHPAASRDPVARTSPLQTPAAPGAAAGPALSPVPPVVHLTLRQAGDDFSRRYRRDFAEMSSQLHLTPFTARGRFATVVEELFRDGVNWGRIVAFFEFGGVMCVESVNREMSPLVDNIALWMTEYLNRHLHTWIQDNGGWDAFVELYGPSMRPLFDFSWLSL

| Binder | Fold/wt [1] [fold] | IC50 [1] [nM] | Fold/wt [2] [fold] | IC50 [2] [nM] | Fold/wt [3] [fold] | IC50 [3] [nM] |
| --- | --- | --- | --- | --- | --- | --- |
| NLWAAQRYGRELRRASDEFVDSFKKG (M13 phage display: FLAG-26mer-GGGT-g3(249-406)) [Bad BH3 M15A, phage-displayed] | 1 | 43 | 3 | 43 |  |  |
| AEDIIRNIARHLAQVGDSMDRSIPPG (M13 phage display: FLAG-26mer-GGGT-g3(249-406)) [Bid BH3 Q1A, phage-displayed] |  |  |  |  | 1 | 29 |
| QEDIIRNIARHLAQVGDSMDRSIPPE (M13 phage display: FLAG-26mer-GGGT-g3(249-406)) [Bid BH3 G26E, phage-displayed] |  |  |  |  | 1 | 25 |
| NLWAAQRYGRELRRMSAEFVDSFKKG (M13 phage display: FLAG-26mer-GGGT-g3(249-406)) [Bad BH3 D17A, phage-displayed] | 3 | 128 |  |  |  |  |
| NLWAAQRYGRELRRMSDEFVASFKKG (M13 phage display: FLAG-26mer-GGGT-g3(249-406)) [Bad BH3 D21A, phage-displayed] | 1 | 28 | 1 | 17 |  |  |
| NLWAAQRYGRELRRMSDEFVDSFKKG (M13 phage display: FLAG-26mer-GGGT-g3(249-406); also called wtBad) [Bad BH3 wild type, phage-displayed] | 1 | 37 | 1 | 13 |  |  |
| QEDIIRNIARHAAQVGDSMDRSIPPG (M13 phage display: FLAG-26mer-GGGT-g3(249-406)) [Bid BH3 L12A, phage-displayed] |  |  |  |  | 25 | 553 |
| QEDIIRNIARHLAQVGDSMDRSIPAG (M13 phage display: FLAG-26mer-GGGT-g3(249-406)) [Bid BH3 P25A, phage-displayed] |  |  |  |  | 1 | 26 |
| NLWAAARYGRELRRMSDEFVDSFKKG (M13 phage display: FLAG-26mer-GGGT-g3(249-406)) [Bad BH3 Q6A, phage-displayed] | 1 | 47 | 1 | 18 |  |  |
| QEDIIRNAARHLAQVGDSMDRSIPPG (M13 phage display: FLAG-26mer-GGGT-g3(249-406)) [Bid BH3 I8A, phage-displayed] |  |  |  |  | 8 | 182 |
| QEDIIRNIARHLAQVGDSMDRSAPPG (M13 phage display: FLAG-26mer-GGGT-g3(249-406)) [Bid BH3 I23A, phage-displayed] |  |  |  |  | 1 | 18 |
| QEDIARNIARHLAQVGDSMDRSIPPG (M13 phage display: FLAG-26mer-GGGT-g3(249-406)) [Bid BH3 I5A, phage-displayed] |  |  |  |  | 2 | 34 |
| QEAIIRNIARHLAQVGDSMDRSIPPG (M13 phage display: FLAG-26mer-GGGT-g3(249-406)) [Bid BH3 D3A, phage-displayed] |  |  |  |  | 1 | 34 |
| QADIIRNIARHLAQVGDSMDRSIPPG (M13 phage display: FLAG-26mer-GGGT-g3(249-406)) [Bid BH3 E2A, phage-displayed] |  |  |  |  | 2 | 34 |
| QEDIIRNIARHLAQVGDSMARSIPPG (M13 phage display: FLAG-26mer-GGGT-g3(249-406)) [Bid BH3 D20A, phage-displayed] |  |  |  |  | 1 | 24 |
| NAWAAQRYGRELRRMSDEFVDSFKKG (M13 phage display: FLAG-26mer-GGGT-g3(249-406)) [Bad BH3 L2A, phage-displayed] | 1 | 35 | 1 | 7 |  |  |
| QEDIIRNIARHLAQVGDSMDRAIPPG (M13 phage display: FLAG-26mer-GGGT-g3(249-406)) [Bid BH3 S22A, phage-displayed] |  |  |  |  | 1 | 27 |
| NLWEAQRYGRELRRMSDEFVDSFKKG (M13 phage display: FLAG-26mer-GGGT-g3(249-406)) [Bad BH3 A4E, phage-displayed] | 1 | 46 | 1 | 10 |  |  |
| NLWAAQRYGRELRRMSDEFVDSFKAG (M13 phage display: FLAG-26mer-GGGT-g3(249-406)) [Bad BH3 K25A, phage-displayed] | 1 | 46 | 1 | 13 |  |  |
| QEDIIRNIARHLAQVGDAMDRSIPPG (M13 phage display: FLAG-26mer-GGGT-g3(249-406)) [Bid BH3 S18A, phage-displayed] |  |  |  |  | 1 | 31 |
| QEDIIRNIARALAQVGDSMDRSIPPG (M13 phage display: FLAG-26mer-GGGT-g3(249-406)) [Bid BH3 H11A, phage-displayed] |  |  |  |  | 1 | 17 |
| NLWAAQRYGRELRRMSDEFVDAFKKG (M13 phage display: FLAG-26mer-GGGT-g3(249-406)) [Bad BH3 S22A, phage-displayed] | 2 | 77 | 1 | 19 |  |  |
| QEDIIANIARHLAQVGDSMDRSIPPG (M13 phage display: FLAG-26mer-GGGT-g3(249-406)) [Bid BH3 R6A, phage-displayed] |  |  |  |  | 2 | 42 |

| Binder | Fold/wt [1] [fold] | IC50 [1] [nM] | Fold/wt [2] [fold] | IC50 [2] [nM] | Fold/wt [3] [fold] | IC50 [3] [nM] |
| --- | --- | --- | --- | --- | --- | --- |
| NLAAAQRYGRELRRMSDEFVDSFKKG (M13 phage display: FLAG-26mer-GGGT-g3(249-406)) [Bad BH3 W3A, phage-displayed] | 1 | 33 | 1 | 12 |  |  |
| NLWAAQRYGRELRRMSDEFADSFKKG (M13 phage display: FLAG-26mer-GGGT-g3(249-406)) [Bad BH3 V20A, phage-displayed] | 1 | 38 | 1 | 13 |  |  |
| QEDIIRNIARHLEQVGDSMDRSIPPG (M13 phage display: FLAG-26mer-GGGT-g3(249-406)) [Bid BH3 A13E, phage-displayed] |  |  |  |  | 11 | 253 |
| NLWAAQRYGRELRRMSDAFVDSFKKG (M13 phage display: FLAG-26mer-GGGT-g3(249-406)) [Bad BH3 E18A, phage-displayed] | 1 | 55 | 2 | 29 |  |  |
| QEDIIRNIARHLAQVGDSMDRSIAPG (M13 phage display: FLAG-26mer-GGGT-g3(249-406)) [Bid BH3 P24A, phage-displayed] |  |  |  |  | 1 | 25 |
| NLWAAQRYGRELRRMSDEFVDSAKKG (M13 phage display: FLAG-26mer-GGGT-g3(249-406)) [Bad BH3 F23A, phage-displayed] | 2 | 83 |  |  |  |  |
| NLWAAQRYGAELRRMSDEFVDSFKKG (M13 phage display: FLAG-26mer-GGGT-g3(249-406)) [Bad BH3 R10A, phage-displayed] | 1 | 41 | 1 | 14 |  |  |
| NLWAAQRYGRELRRMSDEFVDSFAKG (M13 phage display: FLAG-26mer-GGGT-g3(249-406)) [Bad BH3 K24A, phage-displayed] | 1 | 54 | 1 | 14 |  |  |
| QEDAIRNIARHLAQVGDSMDRSIPPG (M13 phage display: FLAG-26mer-GGGT-g3(249-406)) [Bid BH3 I4A, phage-displayed] |  |  |  |  | 1 | 23 |
| QEDIIRAIARHLAQVGDSMDRSIPPG (M13 phage display: FLAG-26mer-GGGT-g3(249-406)) [Bid BH3 N7A, phage-displayed] |  |  |  |  | 1 | 25 |
| QEDIIRNIARHLAQAGDSMDRSIPPG (M13 phage display: FLAG-26mer-GGGT-g3(249-406)) [Bid BH3 V15A, phage-displayed] |  |  |  |  | 3 | 59 |
| QEDIIRNIARHLAAVGDSMDRSIPPG (M13 phage display: FLAG-26mer-GGGT-g3(249-406)) [Bid BH3 Q14A, phage-displayed] |  |  |  |  | 1 | 25 |
| NLWAEQRYGRELRRMSDEFVDSFKKG (M13 phage display: FLAG-26mer-GGGT-g3(249-406)) [Bad BH3 A5E, phage-displayed] | 4 | 152 | 2 | 26 |  |  |
| NLWAAQAYGRELRRMSDEFVDSFKKG (M13 phage display: FLAG-26mer-GGGT-g3(249-406)) [Bad BH3 R7A, phage-displayed] | 1 | 32 | 1 | 14 |  |  |
| QEDIIRNIAAHLAQVGDSMDRSIPPG (M13 phage display: FLAG-26mer-GGGT-g3(249-406)) [Bid BH3 R10A, phage-displayed] |  |  |  |  | 2 | 46 |
| NLWAAQRYGRELRAMSDEFVDSFKKG (M13 phage display: FLAG-26mer-GGGT-g3(249-406)) [Bad BH3 R14A, phage-displayed] | 2 | 86 | 5 | 57 |  |  |
| NLWAAQRYGRELARMSDEFVDSFKKG (M13 phage display: FLAG-26mer-GGGT-g3(249-406)) [Bad BH3 R13A, phage-displayed] | 1 | 52 | 1 | 19 |  |  |
| QEDIIRNIARHLAQVGDSMDASIPPG (M13 phage display: FLAG-26mer-GGGT-g3(249-406)) [Bid BH3 R21A, phage-displayed] |  |  |  |  | 2 | 52 |
| NLWAAQRAGRELRRMSDEFVDSFKKG (M13 phage display: FLAG-26mer-GGGT-g3(249-406)) [Bad BH3 Y8A, phage-displayed] | 2 | 77 | 1 | 19 |  |  |
| ALWAAQRYGRELRRMSDEFVDSFKKG (M13 phage display: FLAG-26mer-GGGT-g3(249-406)) [Bad BH3 N1A, phage-displayed] | 1 | 47 | 1 | 10 |  |  |
| NLWAAQRYGRELRRMSDEFVDSFKKE (M13 phage display: FLAG-26mer-GGGT-g3(249-406)) [Bad BH3 G26E, phage-displayed] | 1 | 37 | 1 | 15 |  |  |
| QEDIIRNIARHLAQVGDSMDRSIPPG (M13 phage display: FLAG-26mer-GGGT-g3(249-406); also called wtBid) [Bid BH3 wild type, phage-displayed] |  |  |  |  | 1 | 23 |

Source: patent US20090048164A1 (WALTER AND ELIZA HALL INSTITUTE OF MEDICAL RESEARCH, published 2009)
